# Results as given in US10253076B2, “Peptides and combination of peptides for use in immunotherapy against ovarian cancer and other cancers” (immatics biotechnologies GmbH, priority 2015, dated 2019).
# Target: HLA-A*02:01 (Homo sapiens, UniProt P04439, D140Y/D185E/D98H/E176V/E277Q/G131W/G231S/I119V/I121R/I166T/I218V/L300P/L318F/N151K/N90K/P208A/P217A/Q86G/Q94H/R138H/R169H/T345S)
# Test: MHC binding assay (UV-ligand exchange, beta2m ELISA, peptide exchange yield)
# Details: binding of HLA-class I restricted peptides to HLA-A*02:01, ranged by peptide exchange yield (UV-ligand exchange, β2m ELISA)
# Procedure, shortened: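 Readout is a β2m ELISA: stabilized complexes captured on streptavidin, detected with HRP-conjugated anti-β2m and TMB at 450 nm, reporting peptide exchange yield. Complexes come from UV-light cleavage of a conditional ligand in HLA-A*02:01 and replacement by the candidate peptide, samples diluted 100-fold.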
row,Substance,Peptide exchange
1,279 (ALWGGTQPLL; listed as Homo sapiens) [compound 279],″++″ (≥20% = ++)
2,103 (TLAEEVVAL; listed as Homo sapiens) [compound 103],″+++″ (≥50% = +++)
3,347 (SLFKHDPAAWEA; listed as Homo sapiens) [compound 347],″++++″ (≥75% = ++++)
4,356 (KLLGKLPEL; listed as Homo sapiens) [compound 356],″+++″ (≥50% = +++)
5,186 (TLFFQQNAL; listed as Homo sapiens) [compound 186],″++″ (≥20% = ++)
6,193 (QLLDADGFLNV; listed as Homo sapiens) [compound 193],″+++″ (≥50% = +++)
7,104 (STMEQNFLL; listed as Homo sapiens) [compound 104],″++++″ (≥75% = ++++)
8,225 (SLLKVLPAL; listed as Homo sapiens) [compound 225],″+++″ (≥50% = +++)
9,550 (FLYDEIEAEVNL; listed as Homo sapiens) [compound 550],″+++″ (≥50% = +++)
10,373 (SLLEDKGLAEV; listed as Homo sapiens) [compound 373],″++″ (≥20% = ++)
11,466 (VLIANLEKL; listed as Homo sapiens) [compound 466],″++++″ (≥75% = ++++)
12,380 (TLIEDEIATI; listed as Homo sapiens) [compound 380],″++″ (≥20% = ++)
13,77 (ILVEADGAWVV; listed as Homo sapiens) [compound 77],″++++″ (≥75% = ++++)
14,96 (YIFTDNPAAV; listed as Homo sapiens) [compound 96],″+++″ (≥50% = +++)
15,288 (NLINEINGV; listed as Homo sapiens) [compound 288],″+++″ (≥50% = +++)
16,222 (NLIENVQRL; listed as Homo sapiens) [compound 222],″++″ (≥20% = ++)
17,308 (SQYSGQLHEV; listed as Homo sapiens) [compound 308],″+++″ (≥50% = +++)
18,622 (RLLGEEVVRVLQA; listed as Homo sapiens) [compound 622],″+++″ (≥50% = +++)
19,555 (YVLEGLKSV; listed as Homo sapiens) [compound 555],″+++″ (≥50% = +++)
20,303 (AILPQLFMV; listed as Homo sapiens) [compound 303],″++++″ (≥75% = ++++)

row,Substance,Peptide exchange
1,609 (ALWKQLLEL; listed as Homo sapiens) [compound 609],″+++″ (≥50% = +++)
2,473 (AMATESILHFA; listed as Homo sapiens) [compound 473],″+++″ (≥50% = +++)
3,153 (FLIANVLYL; listed as Homo sapiens) [compound 153],″+″ (≥10% = +)
4,132 (LLVEQPPLAGV; listed as Homo sapiens) [compound 132],″+++″ (≥50% = +++)
5,361 (ALYELEGTTV; listed as Homo sapiens) [compound 361],″+++″ (≥50% = +++)
6,312 (IISDLTIAL; listed as Homo sapiens) [compound 312],″+++″ (≥50% = +++)
7,362 (TLYGLSVLL; listed as Homo sapiens) [compound 362],″+++″ (≥50% = +++)
8,363 (KVLDVSDLESV; listed as Homo sapiens) [compound 363],″++″ (≥20% = ++)
9,412 (YLDDLNEGVYI; listed as Homo sapiens) [compound 412],″++″ (≥20% = ++)
10,70 (GLLDYPVGV; listed as Homo sapiens) [compound 70],″+++″ (≥50% = +++)
11,176 (YLMEGSYNKVFL; listed as Homo sapiens) [compound 176],″++″ (≥20% = ++)
12,63 (YLLPSGGSVTL; listed as Homo sapiens) [compound 63],″++″ (≥20% = ++)
13,623 (YLVEDIQHI; listed as Homo sapiens) [compound 623],″+++″ (≥50% = +++)
14,377 (FLLDSSASV; listed as Homo sapiens) [compound 377],″++″ (≥20% = ++)
15,224 (TLIDAQWVL; listed as Homo sapiens) [compound 224],″+++″ (≥50% = +++)
16,264 (SLQEQLHSV; listed as Homo sapiens) [compound 264],″+++″ (≥50% = +++)
17,242 (AIAYILQGV; listed as Homo sapiens) [compound 242],″++″ (≥20% = ++)
18,610 (LLAPTPYIIGV; listed as Homo sapiens) [compound 610],″+++″ (≥50% = +++)
19,492 (SLFDGFADGLGV; listed as Homo sapiens) [compound 492],″+++″ (≥50% = +++)
20,503 (SLNHFTHSV; listed as Homo sapiens) [compound 503],″+++″ (≥50% = +++)

row,Substance,Peptide exchange
1,204 (KIAENVEEV; listed as Homo sapiens) [compound 204],″++″ (≥20% = ++)
2,465 (QLCDLNAEL; listed as Homo sapiens) [compound 465],″+++″ (≥50% = +++)
3,487 (LLINSVFHV; listed as Homo sapiens) [compound 487],″+++″ (≥50% = +++)
4,516 (AVGPASILKEV; listed as Homo sapiens) [compound 516],″++″ (≥20% = ++)
5,348 (ILLDVKTRL; listed as Homo sapiens) [compound 348],″++++″ (≥75% = ++++)
6,386 (ILFRYPLTI; listed as Homo sapiens) [compound 386],″+++″ (≥50% = +++)
7,295 (VLDRESPNV; listed as Homo sapiens) [compound 295],″+++″ (≥50% = +++)
8,573 (ILVANAIVGV; listed as Homo sapiens) [compound 573],″+++″ (≥50% = +++)
9,329 (FLVTLNNVEV; listed as Homo sapiens) [compound 329],″++++″ (≥75% = ++++)
10,152 (ILFEDIFDV; listed as Homo sapiens) [compound 152],″+++″ (≥50% = +++)
11,53 (KMIETDILQKV; listed as Homo sapiens) [compound 53],″++++″ (≥75% = ++++)
12,298 (VMITKLVEV; listed as Homo sapiens) [compound 298],″+++″ (≥50% = +++)
13,464 (ALNDCIYSV; listed as Homo sapiens) [compound 464],″+++″ (≥50% = +++)
14,116 (YHIDEEVGF; listed as Homo sapiens) [compound 116],″+″ (≥10% = +)
15,437 (SMAPGLVIQAV; listed as Homo sapiens) [compound 437],″+++″ (≥50% = +++)
16,218 (SALEELVNV; listed as Homo sapiens) [compound 218],″++″ (≥20% = ++)
17,608 (SLLSVSHAL; listed as Homo sapiens) [compound 608],″+++″ (≥50% = +++)
18,507 (KLIDDQDISISL; listed as Homo sapiens) [compound 507],″+++″ (≥50% = +++)
